# Experiments:
# [1] = target: PD-1 (human (endogenous in patient renal tissue)) (UniProt Q15116); experiment: FRET or BRET; FuncOmap: Ef computed for each coincidence region of the two-site aiFRET/FLIM images of tissue microarray cores (HIF1β/HIF2α: B7, A5; PD-1/PD-L1: B7, B5, A5); Otsu thresholding; Ef below 4% regarded as non-interactive
# [2] = target: PD-1 (human (endogenous in patient renal tissue)) (UniProt Q15116); experiment: FRET or BRET; two-site aiFRET read by frequency-domain FLIM on tissue microarray cores (normal renal tissue B7, ccRCC cores A1 and A2); median Ef over 10-20 hand-picked regions of interest; donor ATTO488 on HIF1β or PD-1, acceptor Alexa594 (TSA) on HIF2α or PD-L1; Ef below 4% regarded as non-interactive
# Chain of PD-1 (human (endogenous in patient renal tissue)) (Q15116 25-288): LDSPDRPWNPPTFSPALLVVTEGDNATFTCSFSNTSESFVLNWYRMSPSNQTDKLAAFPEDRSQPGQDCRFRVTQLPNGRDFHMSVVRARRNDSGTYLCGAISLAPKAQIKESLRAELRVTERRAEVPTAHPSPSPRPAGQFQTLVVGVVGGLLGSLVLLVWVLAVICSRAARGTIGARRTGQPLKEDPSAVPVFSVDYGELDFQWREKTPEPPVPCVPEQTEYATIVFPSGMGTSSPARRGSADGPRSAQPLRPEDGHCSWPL
# Chain of PD-L1 (Q9NZQ7 19-290): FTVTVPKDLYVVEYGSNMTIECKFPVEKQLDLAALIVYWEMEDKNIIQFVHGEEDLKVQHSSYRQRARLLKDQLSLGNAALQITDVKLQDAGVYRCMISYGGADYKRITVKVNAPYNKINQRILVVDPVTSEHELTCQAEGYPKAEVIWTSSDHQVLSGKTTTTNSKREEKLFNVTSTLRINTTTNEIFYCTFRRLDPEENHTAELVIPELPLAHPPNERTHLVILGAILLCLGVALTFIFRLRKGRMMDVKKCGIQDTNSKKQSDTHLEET
substance,measurement,setting,value
PD-L1 (from UniProt Q9NZQ7 19-290) (ligand),"Ef, core A5, region 57",[1],0%
same,"Ef, core A5, region 63",[1],10.9%
same,"Ef, core A5, region 92",[1],8.6%
same,"Ef, core A5, region 110",[1],8.34%
same,"Ef, core A5, region 186",[1],8.16%
same,"Ef, core A5, region 421",[1],5.03%
same,"Ef, core A5, region 448",[1],7.7%
same,"Ef, core A5, region 482",[1],9.31%
same,"Ef, core A5, region 505",[1],7.72%
same,"Ef, core A5, region 564",[1],8.82%
same,"Ef, core A5, region 639",[1],11.2%
same,"Ef, core A5, region 653",[1],12.1%
same,"Ef, core A5, region 812",[1],16.7%
same,"Ef, core A5, region 823",[1],9.22%
same,"Ef, core A5, region 929",[1],8.25%
same,"Ef, core A5, region 949",[1],6.49%
same,"Ef, core A5, region 1053",[1],12.9%
same,"Ef, core A5, region 1064",[1],10.6%
same,"Ef, core A5, region 1113",[1],4.28%
same,"Ef, core A5, region 1241",[1],6.86%
same,"Ef, core A5, region 1250",[1],10.1%
same,"Ef, core A5, region 1255",[1],8.24%
same,"Ef, core A5, region 1274",[1],8.32%
same,"Ef, core A5, region 1360",[1],6.13%
same,"Ef, core A5, region 1405",[1],12.4%
same,"Ef, core B5, region 81",[1],21.8%
same,"Ef, core B5, region 107",[1],30.6%
same,"Ef, core B5, region 176",[1],28.4%
same,"Ef, core B5, region 249",[1],23.6%
same,"Ef, core B5, region 261",[1],15.7%
same,"Ef, core B5, region 373",[1],24%
same,"Ef, core B5, region 546",[1],24.8%
same,"Ef, core B5, region 551",[1],16.4%
same,"Ef, core B5, region 586",[1],17%
same,"Ef, core B5, region 622",[1],23.1%
same,"Ef, core B5, region 774",[1],25.1%
same,"Ef, core B5, region 841",[1],29.4%
same,"Ef, core B5, region 930",[1],28.3%
same,"Ef, core B5, region 1104",[1],21.1%
same,"Ef, core B5, region 1155",[1],20.4%
same,"Ef, core B5, region 1187",[1],0%
same,"Ef, core B5, region 1246",[1],15.8%
same,"Ef, core B5, region 1288",[1],26.3%
same,"Ef, core B5, region 1500",[1],28.5%
same,"Ef, core B5, region 1612",[1],13.9%
same,"Ef, core B5, region 1772",[1],20.8%
same,"Ef, core B5, region 1811",[1],24%
same,"Ef, core B5, region 1878",[1],18.1%
same,"Ef, core B5, region 2043",[1],20.4%
same,"Ef, core B5, region 2232",[1],28.3%
same,"Ef, core B7, region 24",[1],21.5%
same,"Ef, core B7, region 67",[1],14.2%
same,"Ef, core B7, region 102",[1],16.1%
same,"Ef, core B7, region 197",[1],21.2%
same,"Ef, core B7, region 233",[1],48.4%
same,"Ef, core B7, region 299",[1],16.3%
same,"Ef, core B7, region 356",[1],20%
same,"Ef, core B7, region 384",[1],16.5%
same,"Ef, core B7, region 442",[1],19.1%
same,"Ef, core B7, region 548",[1],23.4%
same,"Ef, core B7, region 561",[1],12.8%
same,"Ef, core B7, region 648",[1],26.6%
same,"Ef, core B7, region 772",[1],14.2%
same,"Ef, core B7, region 905",[1],12%
same,"Ef, core B7, region 984",[1],22.3%
same,"Ef, core B7, region 1009",[1],28.9%
same,"Ef, core B7, region 1273",[1],23.4%
same,"Ef, core B7, region 1454",[1],29.9%
same,"Ef, core B7, region 1657",[1],18.1%
same,"Ef, core B7, region 1711",[1],25.7%
same,"Ef, core B7, region 1750",[1],18.1%
same,"Ef, core B7, region 1861",[1],27.4%
same,"Ef, core B7, region 1919",[1],14.7%
same,"Ef, core B7, region 1932",[1],26.4%
same,"Ef, core B7, region 1973",[1],28.4%
same,"median Ef, normal tissue",[2],5.24%

# Reference: publication PMC11524007
